According to the supplement of paper PMC9112550, “Optimization of the antimicrobial peptide Bac7 by deep mutational scanning” (BMC Biology, 2022):

test system: Escherichia coli TOP10; experiment: shrunken log2 fold change of peptide-encoding DNA abundance (4.5 h post-induction vs induction); higher = less antimicrobial activity (less host growth inhibition); details: time post-induction: 4.5 h; library: site-saturation at positions 5, 18, 19, 20
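Also: peptides expressed intracellularly from a pBAD plasmid library in pooled LB shake-flask culture, induced with 0.3% L-arabinose, DNA abundance read by NGS, three biological replicates, DESeq2 with apeglm shrinkage.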

Sequence	shrunken log2 fold change
RRIRGRPPRLPRPRPRPKGIPRP	0.529
RRIRVRPPRLPRPRPRPASEPRP	0.0395
RRIRYRPPRLPRPRPRPFAFPRP	-1.05
RRIRVRPPRLPRPRPRPRWDPRP	0.193
RRIRFRPPRLPRPRPRPNGVPRP	-0.0018
RRIRWRPPRLPRPRPRPDELPRP	0.402
RRIRVRPPRLPRPRPRPGAHPRP	0.0262
RRIRRRPPRLPRPRPRPPMYPRP	0.0631
RRIRDRPPRLPRPRPRPEPKPRP	1.4
RRIRIRPPRLPRPRPRPGYTPRP	-0.206
RRIRYRPPRLPRPRPRPRYKPRP	-0.451
RRIRVRPPRLPRPRPRPKVHPRP	-0.192
RRIRLRPPRLPRPRPRPGAYPRP	-0.16
RRIRGRPPRLPRPRPRPANWPRP	0.731
RRIRCRPPRLPRPRPRPYVEPRP	-0.942
RRIRKRPPRLPRPRPRPGTQPRP	0.114
RRIRNRPPRLPRPRPRPLTVPRP	0.0619
RRIRGRPPRLPRPRPRPHNVPRP	0.0498
RRIRDRPPRLPRPRPRPHADPRP	-0.0841
RRIRLRPPRLPRPRPRPFYSPRP	-0.133
RRIRNRPPRLPRPRPRPSMEPRP	-0.118
RRIRFRPPRLPRPRPRPPKLPRP	0.0996
RRIRRRPPRLPRPRPRPDAFPRP	0.737

Sequence	shrunken log2 fold change
RRIRGRPPRLPRPRPRPCGLPRP	0.641
RRIRGRPPRLPRPRPRPQHSPRP	-0.0223
RRIRRRPPRLPRPRPRPRLGPRP	0.76
RRIRMRPPRLPRPRPRPAGTPRP	0.627
RRIRMRPPRLPRPRPRPMNSPRP	0.0624
RRIRFRPPRLPRPRPRPGFQPRP	0.0959
RRIRARPPRLPRPRPRPAQNPRP	0.333
RRIRTRPPRLPRPRPRPGPFPRP	0.102
RRIRGRPPRLPRPRPRPFKWPRP	-0.0584
RRIRPRPPRLPRPRPRPPNNPRP	0.414
RRIRMRPPRLPRPRPRPMCYPRP	0.0406
RRIRTRPPRLPRPRPRPMCSPRP	-0.0861
RRIRDRPPRLPRPRPRPTTAPRP	1.3
RRIRIRPPRLPRPRPRPVQVPRP	-0.0757
RRIRVRPPRLPRPRPRPADPPRP	0.0239
RRIRQRPPRLPRPRPRPKWHPRP	0.48
RRIRCRPPRLPRPRPRPQMTPRP	0.218
RRIRERPPRLPRPRPRPYGQPRP	-0.315
RRIRLRPPRLPRPRPRPWPGPRP	0.0987
RRIRRRPPRLPRPRPRPYKWPRP	-0.138
RRIRLRPPRLPRPRPRPGTCPRP	0.0703
RRIRTRPPRLPRPRPRPVTPPRP	0.184
RRIRMRPPRLPRPRPRPCPRPRP	0.167

Sequence	shrunken log2 fold change
RRIRNRPPRLPRPRPRPCHAPRP	-0.37
RRIRQRPPRLPRPRPRPMALPRP	0.00414
RRIRWRPPRLPRPRPRPEGCPRP	1.22
RRIRCRPPRLPRPRPRPCEQPRP	-0.222
RRIRHRPPRLPRPRPRPKKFPRP	-0.123
RRIRPRPPRLPRPRPRPNHTPRP	-0.21
RRIRIRPPRLPRPRPRPWQAPRP	-0.115
RRIRWRPPRLPRPRPRPACDPRP	0.788
RRIRKRPPRLPRPRPRPMIWPRP	-0.00177
RRIRMRPPRLPRPRPRPKDIPRP	-0.0934
RRIRTRPPRLPRPRPRPVLYPRP	-0.365
RRIRGRPPRLPRPRPRPRWEPRP	0.946
RRIRVRPPRLPRPRPRPPGKPRP	0.0564
RRIRNRPPRLPRPRPRPQAGPRP	-0.128
RRIRHRPPRLPRPRPRPTNQPRP	-0.425
RRIRCRPPRLPRPRPRPGRGPRP	1.18
RRIRGRPPRLPRPRPRPWHQPRP	1.75
RRIRARPPRLPRPRPRPYPRPRP	0.00693
RRIRNRPPRLPRPRPRPMCTPRP	-0.124
RRIRARPPRLPRPRPRPKYDPRP	-0.293
RRIRQRPPRLPRPRPRPYHVPRP	-0.00172
RRIRDRPPRLPRPRPRPQMPPRP	-0.486
RRIRGRPPRLPRPRPRPDDRPRP	0.814

Sequence	shrunken log2 fold change
RRIRDRPPRLPRPRPRPAHFPRP	0.358
RRIRYRPPRLPRPRPRPPSPPRP	0.398
RRIRSRPPRLPRPRPRPHESPRP	-0.15
RRIRFRPPRLPRPRPRPVGVPRP	0.356
RRIRWRPPRLPRPRPRPTVSPRP	-0.156
RRIRFRPPRLPRPRPRPGLHPRP	0.159
RRIRWRPPRLPRPRPRPEMMPRP	0.399
RRIRWRPPRLPRPRPRPESSPRP	0.759
RRIRIRPPRLPRPRPRPANKPRP	-0.222
RRIRRRPPRLPRPRPRPFNCPRP	-0.301
RRIRDRPPRLPRPRPRPLQKPRP	-0.0982
RRIRPRPPRLPRPRPRPFCRPRP	0.00205
RRIRCRPPRLPRPRPRPMDYPRP	-0.181
RRIRDRPPRLPRPRPRPNFPPRP	-0.0273
RRIRIRPPRLPRPRPRPMQIPRP	-0.099
RRIRTRPPRLPRPRPRPMDLPRP	-0.0399
RRIRCRPPRLPRPRPRPVRCPRP	-0.00859
RRIRIRPPRLPRPRPRPMLIPRP	-0.21
RRIRMRPPRLPRPRPRPEGFPRP	2.81
RRIRERPPRLPRPRPRPANSPRP	-0.0581
RRIRCRPPRLPRPRPRPCEHPRP	-0.328
RRIRIRPPRLPRPRPRPYAEPRP	-0.844
